From the supplement of paper PMC11246515 come the findings set out here.

The nature of the data set: total protein half-life in vivo (active degradation + dilution); higher = more stable protein.
Where [1] appears, read: E. coli NCM3722 delta-clpP delta-lon delta-hslV, growth: N-lim chemostat, doubling time 6 h.
The mark [2] stands for this setting: E. coli NCM3722 delta-clpP, growth: N-lim chemostat, doubling time 6 h.
The mark [3] stands for this setting: E. coli NCM3722 delta-hslV, growth: N-lim chemostat, doubling time 6 h.
Setting [4] is: E. coli NCM3722 delta-lon, growth: N-lim chemostat, doubling time 6 h.
Setting [5] is: E. coli NCM3722 delta-smpB, growth: N-lim chemostat, doubling time 6 h.
Where [6] appears, read: wild type E. coli NCM3722, growth: C-lim chemostat, doubling time 3 h.
Setting [7] is: wild type E. coli NCM3722, growth: C-lim chemostat, doubling time 6 h.
Setting [8] is: wild type E. coli NCM3722, growth: C-lim chemostat, doubling time 12 h.
[9] abbreviates: wild type E. coli NCM3722, growth: N-lim chemostat, doubling time 6 h.
Setting [10] is: wild type E. coli NCM3722, growth: N-lim chemostat, doubling time 12 h.
Where [11] appears, read: wild type E. coli NCM3722, growth: P-lim chemostat, doubling time 12 h.
Where [12] appears, read: wild type E. coli NCM3722, growth: P-lim chemostat, doubling time 6 h.

± gives the standard deviation of the averaged measurements.

As for “MNKIFSSHVMPFRALIDACWKEKYTAARFTRDLIAGITVGIIAIPLAMALAIGSGVAPQYGLYTAAVAGIVIALTGGSRFSVSGPTAAFVVILYPVSQQFGLAGLLVATLLSGIFLILMGLARFGRLIEYIPVSVTLGFTSGIGITIGTMQIKDFLGLQMAHVPEHYLQKVGALFMALPTINVGDAAIGIVTLGILVFWPRLGIRLPGHLPALLAGCAVMGIVNLLGGHVATIGSQFHYVLADGSQGNGIPQLLPQLVLPWDLPNSEFTLTWDSIRTLLPAAFSMAMLGAIESLLCAVVLDGMTGTKHKANSELVGQGLGNIIAPFFGGITATAAIARSAANVRAGATSPISAVIHSILVILALLVLAPLLSWLPLSAMAALLLMVAWNMSEAHKVVDLLRHAPKDDIIVMLLCMSLTVLFDMVIAISVGIVLASLLFMRRIARMTRLAPVVVDVPDDVLVLRVIGPLFFAAAEGLFTDLESRLEGKRIVILKWDAVPVLDAGGLDAFQRFVKRLPEGCELRVCNVEFQPLRTMARAGIQPIPGRLAFFPNRRAAMADL [P0AFR2]”, the “total protein half-life in vivo” value reads like this: under setting [1], 5.99 ± 0.062 h; under setting [2], 6.21 ± 0.72 h; under setting [3], 5.51 h; under setting [4], 5.97 ± 0.73 h; under setting [5], 5.82 ± 0.46 h; under setting [6], 1.95 h. In addition, the “total protein half-life in vivo” value was 6.39 ± 0.93 h under setting [7]; above 16 h under setting [8]; 6.43 ± 1.8 h under setting [9]; above 16 h under setting [10]; 7.77 h under setting [11].
Take “MNTRQLLSVGIDIGTTTTQVIFSRLELVNRAAVSQVPRYEFIKREISWQSPVFFTPVDKQGGLKEAELKTLILEQYHAAGIEPESVDSGAIIITGESAKTRNARPAVMALSQSLGDFVVASAGPHLESVIAGHGAGAQTLSEQRLCRVLNIDIGGGTANYALFDAGKISGTACLNVGGRLLETDSHGRVVYAHKPGQMIVDECFGAGTDARSLTGAQLVQVTRRMAELIVEVIDGTLSPLAQALMQTGLLPAGVTPEIITLSGGVGECYRHQPADPFCFADIGPLLATALHDHPRLREMNVQFPAQTVRATVIGAGAHTLSLSGSTIWLEGVQLPLRNLPVAIPIDETDLVGAWQQALIQLDLDPKTDAYVLALPASLPVRYAAVLTVINALVDFVARFPNPHPLLVVAGQDFGKALGMLLRPQLQQLPLAVIDEVIVRAGDYIDIGTPLFGGSVVPVTVKSLAFPS”: the “total protein half-life in vivo” value under setting [1] was 5.67 h.
Turning to “MAKVSLEKDKIKFLLVEGVHQKALESLRAAGYTNIEFHKGALDDEQLKESIRDAHFIGLRSRTHLTEDVINAAEKLVAIGCFCIGTNQVDLDAAAKRGIPVFNAPFSNTRSVAELVIGELLLLLRGVPEANAKAHRGVWNKLAAGSFEARGKKLGIIGYGHIGTQLGILAESLGMYVYFYDIENKLPLGNATQVQHLSDLLNMSDVVSLHVPENPSTKNMMGAKEISLMKPGSLLINASRGTVVDIPALCDALASKHLAGAAIDVFPTEPATNSDPFTSPLCEFDNVLLTPHIGGSTQEAQENIGLEVAGKLIKYSDNGSTLSAVNFPEVSLPLHGGRRLMHIHENRPGVLTALNKIFAEQGVNIAAQYLQTSAQMGYVVIDIEADEDVAEKALQAMKAIPGTIRARLLY [P0A9T0]”, the “total protein half-life in vivo” value under setting [1] was 5.06 ± 0.26 h; the “total protein half-life in vivo” value under setting [2] was found to be 4.512 ± 0.0057 h; the “total protein half-life in vivo” value under setting [3] was found to be 3.75 ± 0.028 h; the “total protein half-life in vivo” value under setting [4] was 4.11 ± 0.16 h; the “total protein half-life in vivo” value under setting [5] is 4.09 ± 0.058 h; the “total protein half-life in vivo” value under setting [6] was found to be 3.09 ± 0.13 h. The “total protein half-life in vivo” value by setting is: under setting [7], 5.65 ± 0.34 h; under setting [8], 11.5 ± 1.3 h; under setting [9], 3.94 ± 0.12 h; under setting [10], 5.84 ± 0.19 h; under setting [12], 6.02 ± 0.23 h; under setting [11], 11.8 ± 0.39 h.
Turning to “MLIFEGKEIETDTEGYLKESSQWSEPLAVVIAENEGISLSPEHWEVVRFVRDFYLEFNTSPAIRMLVKAMANKFGEEKGNSRYLYRLFPKGPAKQATKIAGLPKPVKCI [P0AB18]”, the “total protein half-life in vivo” value is 4.6 ± 0.063 h under setting [1]; 3.82 ± 0.21 h under setting [2]; 4.08 ± 0.12 h under setting [3]; 6.01 ± 1.2 h under setting [4]; 4.08 ± 0.076 h under setting [5]; 2.84 ± 0.18 h under setting [6]. In addition, the “total protein half-life in vivo” value worked out at 5.35 ± 0.47 h under setting [7]; 12.8 ± 2.9 h under setting [8]; 3.49 ± 0.44 h under setting [9]; 6.82 ± 0.45 h under setting [10]; 4.73 ± 0.007 h under setting [12]; 10.19 ± 0.053 h under setting [11].
Consider “MASSNLIKQLQERGLVAQVTDEEALAERLAQGPIALYCGFDPTADSLHLGHLVPLLCLKRFQQAGHKPVALVGGATGLIGDPSFKAAERKLNTEETVQEWVDKIRKQVAPFLDFDCGENSAIAANNYDWFGNMNVLTFLRDIGKHFSVNQMINKEAVKQRLNREDQGISFTEFSYNLLQGYDFACLNKQYGVVLQIGGSDQWGNITSGIDLTRRLHQNQVFGLTVPLITKADGTKFGKTEGGAVWLDPKKTSPYKFYQFWINTADADVYRFLKFFTFMSIEEINALEEEDKNSGKAPRAQYVLAEQVTRLVHGEEGLQAAKRITECLFSGSLSALSEADFEQLAQDGVPMVEMEKGADLMQALVDSELQPSRGQARKTIASNAITINGEKQSDPEYFFKEEDRLFGRFTLLRRGKKNYCLICWK [P0AGJ9]”, for which the “total protein half-life in vivo” value by setting is: under setting [1], 5.31 ± 0.33 h; under setting [2], 5.55 ± 0.44 h; under setting [3], 5.61 ± 0.41 h; under setting [4], 5.87 ± 0.23 h; under setting [5], 5.58 ± 0.69 h; under setting [6], 3.11 ± 0.094 h. Moreover, the “total protein half-life in vivo” value is, setting by setting: under setting [7], 6.32 ± 0.36 h; under setting [9], 5.51 ± 0.065 h; under setting [10], 10.5 ± 0.76 h; under setting [12], 6.271 ± 0.031 h; under setting [11], 12.2 ± 0.76 h.
On to “MARKTKPLTDTEIKAAKPKDADYQLYDGDGLTLLIKSSGSKLWQFRYYRPLTKQRTKQSFGAYPAVSLSDARKLRAESKVLLAKDIDPQEHQKEQVRNSQEAKTNTFLLVAERWWNVKKTSVTEDYADDIWRSLERDIFPAIGDISITEIKAHTLVKAVQPVQARGALETVRRLCQRINEVMIYAQNTGLIDAVPSVNIGKAFEKPQKKNMPSIRPDQLPQLMHTMRTASISMSTRCLFMWQLLTITRPAEAAEARWDEIDFNASEWKIPAARMKMNRDHTVPLSDGALAILEMMKPLSGGREFIFPSRIKPNQPMNSQTVNAALKRAGLGGVLVSHGLRSIASTALNEEGFPPDVIEAALAHVDKNEVRRAYNRSDYLEQRRPMMQWWADLVKAADSGSIVLTHLSKIRLVG”, for which the “total protein half-life in vivo” value is, setting by setting: under setting [1], 5.38 ± 0.81 h; under setting [3], 0.734 ± 0.064 h; under setting [4], 1.362 ± 0.0065 h; under setting [5], 0.777 ± 0.0083 h; under setting [6], 1.16 ± 0.22 h; under setting [7], 1.13 ± 0.079 h. Moreover, the “total protein half-life in vivo” value by setting is: under setting [8], 0.594 h; under setting [9], 1.7 ± 0.26 h; under setting [10], 0.847 h; under setting [12], 0.572 h; under setting [11], 1.64 ± 0.32 h.
Consider “MTTQRSPGLFRRLAHGSLVKQILVGLVLGILLAWISKPAAEAVGLLGTLFVGALKAVAPILVLMLVMASIANHQHGQKTNIRPILFLYLLGTFSAALAAVVFSFAFPSTLHLSSSAGDISPPSGIVEVMRGLVMSMVSNPIDALLKGNYIGILVWAIGLGFALRHGNETTKNLVNDMSNAVTFMVKLVIRFAPIGIFGLVSSTLATTGFSTLWGYAQLLVVLVGCMLLVALVVNPLLVWWKIRRNPFPLVLLCLRESGVYAFFTRSSAANIPVNMALCEKLNLDRDTYSVSIPLGATINMAGAAITITVLTLAAVNTLGIPVDLPTALLLSVVASLCACGASGVAGGSLLLIPLACNMFGISNDIAMQVVAVGFIIGVLQDSCETALNSSTDVLFTAAACQAEDDRLANSALRN [P0AGE4]”, for which the “total protein half-life in vivo” value under setting [1] came out at 5.56 ± 0.69 h; the “total protein half-life in vivo” value under setting [2] was found to be 5.78 h; the “total protein half-life in vivo” value under setting [3] was 6.04 h; the “total protein half-life in vivo” value under setting [4] came out at 5.28 h; the “total protein half-life in vivo” value under setting [5] amounted to 6.21 ± 0.49 h; the “total protein half-life in vivo” value under setting [6] was determined as 3.36 h. For the same sequence, the “total protein half-life in vivo” value by setting is: under setting [7], 5.87 ± 0.55 h; under setting [8], 12.3 ± 0.23 h; under setting [9], 5.94 ± 0.44 h; under setting [10], 11.6 h; under setting [12], 5.5355 ± 0.00083 h; under setting [11], 10.7 ± 0.53 h.
